Measurements from the supplement of paper PMC10724198.
± gives the standard deviation of the averaged measurements.
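Further: PSI is a weighted mean of sequencing reads over stability bins, variants kept only with over 10 reads, mCherry proximal and sfGFP distal, peptide attached via GGGS linker.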

These sequences were tested on Saccharomyces cerevisiae (assay: protein stability index of tFT-peptide fusion (C-terminal peptide) (PSI (0-1 scale)); higher = more stable (slower turnover)). Settings: genetic background: wild type; temperature: 30 C.
Protocol: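 Multiplexed protein stability (MPS) profiling in S. cerevisiae. Random 12-aa peptides (tFT-X12 library) are fused to the C-terminus of a sfGFP-mCherry tandem fluorescent timer, after mCherry and a GGGS linker. Cells are FACS-sorted into 8 mCherry/sfGFP bins and deep-sequenced. The protein stability index (PSI) is the read-weighted bin average, scaled from 0 (unstable) to 1 (stable). Only peptides with >10 reads are reported; cells were grown at 30 °C in SC-His with glucose.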
DSHDMSQDLFVN was tested, and the protein stability index was 0.767 ± 0.039. With DSIALNKDVFWW the protein stability index was 0.773 ± 0.02. For DSLTKYSAKEYR, the protein stability index was 0.5777 ± 0.0052. With DSNTAGLTRDIA the protein stability index was 0.645 ± 0.015. With DSQSRRFDRSRN the protein stability index was 0.671 ± 0.076. Work on DSVRGNDSGSGL yielded a protein stability index of 0.7245 ± 0.0064. Work on DTHESELNQLNG yielded a protein stability index of 0.6902 ± 0.0032. With DTPERKGNLEEH the protein stability index was 0.709 ± 0.053. DVGWRATGVLGG was tested, and the protein stability index was 0.7106 ± 0.0052. With DVGWRVFVFGGL the protein stability index was 0.704 ± 0.038. DVLSPRPSPLPS was tested, and the protein stability index was 0.665 ± 0.0093. DVRSGRAVVGGW showed a protein stability index of 0.63 ± 0.051. DWYLVGGRVFWV was tested, and the protein stability index was 0.721 ± 0.015. For DYLDYPSYNDLT, the protein stability index was 0.599 ± 0.038. For DYRKGDVETPFV, the protein stability index was 0.677 ± 0.032. DYVVHSGTYGPK was tested, and the protein stability index was 0.687 ± 0.021. For EAIGGVPASSRP, the protein stability index was 0.661 ± 0.0091. EALTTAATRYGP showed a protein stability index of 0.651 ± 0.0068. EARMGVGRCGTG showed a protein stability index of 0.661 ± 0.022. With EARRHTKHPGKI the protein stability index was 0.753 ± 0.066. With EASGPGPGAKAT the protein stability index was 0.6526 ± 0.0026. In the case of EATGSLISFCGW, the protein stability index is reported as 0.665 ± 0.068. EAVCHQFVELIG was tested, and the protein stability index was 0.605 ± 0.02. For ECESGKFSLGGT, the protein stability index was 0.68 ± 0.02. For ECGLGGCGGLGV, the protein stability index was 0.705 ± 0.03. ECTTTWLVPQHL showed a protein stability index of 0.655 ± 0.015. Work on ECYKKFVCSCCT yielded a protein stability index of 0.515 ± 0.0086. For EDFCMVEQPGVE, the protein stability index was 0.7012 ± 0.0054. EDILWADVPYSK gave a protein stability index of 0.759 ± 0.039. With EDRSITYNALIL the protein stability index was 0.678 ± 0.013. Work on EDRTQEIQNIHD yielded a protein stability index of 0.686 ± 0.012. In the case of EDSGRPGRPSTH, the protein stability index is reported as 0.662 ± 0.048. Sequence EDYERETRKICK has a protein stability index of 0.717 ± 0.038. EEGGQGITIEES showed a protein stability index of 0.686 ± 0.12. In the case of EEGGVWIRVEAG, the protein stability index is reported as 0.588 ± 0.019. EEGKSTREKEGG gave a protein stability index of 0.685 ± 0.036. EEMEKRNREKEL gave a protein stability index of 0.691 ± 0.094. Sequence EENGAGVSVGKL has a protein stability index of 0.653 ± 0.0085. Sequence EETRRKKRTGKK has a protein stability index of 0.707 ± 0.0099. EEVKRKSGGKSK gave a protein stability index of 0.662 ± 0.027. Work on EGCYGVRGNTLH yielded a protein stability index of 0.612 ± 0.017. With EGDGLVWGGQGG the protein stability index was 0.691 ± 0.0078. With EGEGQGWGGQGG the protein stability index was 0.6994 ± 0.0021. Work on EGEVGGVVLPRI yielded a protein stability index of 0.696 ± 0.04. For EGGERERGNRER, the protein stability index was 0.7176 ± 0.0069. For EGGLKIRRSRDE, the protein stability index was 0.657 ± 0.024. EGGRGGGRGVVG was tested, and the protein stability index was 0.67 ± 0.027. For EGIVRYRKRGSR, the protein stability index was 0.665 ± 0.015. In the case of EGKKKKKGNRPK, the protein stability index is reported as 0.676 ± 0.081. Sequence EGKWCGVKRGVY has a protein stability index of 0.627 ± 0.033. With EGPTRIKRGRSG the protein stability index was 0.685 ± 0.031. EGQARRAGRQGR was tested, and the protein stability index was 0.7349 ± 0.0053. For EGSGEGEEAGGV, the protein stability index was 0.6497 ± 0.0047. For EGSGLVVANAYP, the protein stability index was 0.667 ± 0.022. With EGVAGEWRGMEM the protein stability index was 0.65 ± 0.014. Sequence EGWVVYFEEDLE has a protein stability index of 0.735 ± 0.017. EHKVQTTTNQKE was tested, and the protein stability index was 0.697 ± 0.011. In the case of EHQNHNTARKRH, the protein stability index is reported as 0.69835 ± 0.00027. Work on EIGGYHLGWAKC yielded a protein stability index of 0.636 ± 0.022. EIIEINNVKRIK was tested, and the protein stability index was 0.6835 ± 0.0049. For EIKGKLQEGRMD, the protein stability index was 0.75 ± 0.021. For EINEKPGINKKI, the protein stability index was 0.6587 ± 0.0028. In the case of EIVKAHKVKKRK, the protein stability index is reported as 0.7166 ± 0.0045. EIYARVQERLKI showed a protein stability index of 0.617 ± 0.016. EKDRAVGAAKAA gave a protein stability index of 0.631 ± 0.12. With EKERRATCPGRK the protein stability index was 0.652 ± 0.051. In the case of EKESERGREKDS, the protein stability index is reported as 0.747 ± 0.12. EKIKKTEKNKNK showed a protein stability index of 0.6755 ± 0.0042. Work on EKKEGEREKQED yielded a protein stability index of 0.751 ± 0.15. Work on EKKKKKKEEREK yielded a protein stability index of 0.728 ± 0.16. In the case of EKKKKKPKKKRK, the protein stability index is reported as 0.687 ± 0.026. With EKKKKKTAKQLK the protein stability index was 0.671 ± 0.085. With EKKKKTKKEKKK the protein stability index was 0.677 ± 0.0082. For EKKLKNEEKKEI, the protein stability index was 0.717 ± 0.04. In the case of EKLRGRKKGELQ, the protein stability index is reported as 0.668 ± 0.036. EKQICKVVKIKE showed a protein stability index of 0.777 ± 0.048. EKRAKKKVKIII was tested, and the protein stability index was 0.62 ± 0.035. With EKRDEGAGKGEQ the protein stability index was 0.63 ± 0.014. EKSQMPPAPAPK gave a protein stability index of 0.703 ± 0.04. Sequence EKVASLVTIFDM has a protein stability index of 0.695 ± 0.024. For ELASLSPCCMGM, the protein stability index was 0.762 ± 0.15. Work on ELDFVVNKIQDW yielded a protein stability index of 0.828 ± 0.096. Work on ELFGGQRLARNY yielded a protein stability index of 0.637 ± 0.057. ELTLTVFQVGEE was tested, and the protein stability index was 0.602 ± 0.025. For ELVGRRAFRASR, the protein stability index was 0.693 ± 0.12. Work on ENANWHSKNMSK yielded a protein stability index of 0.723 ± 0.071. Sequence ENEKKKKNKNKN has a protein stability index of 0.7 ± 0.049. For ENIENGRPKTEP, the protein stability index was 0.644 ± 0.012. For ENKTNKEKQQKQ, the protein stability index was 0.691 ± 0.012. Work on EPCIVCPMSRQG yielded a protein stability index of 0.773 ± 0.11. In the case of EPGGSKRSGGRL, the protein stability index is reported as 0.686 ± 0.03. For EPWTEQPKLDSR, the protein stability index was 0.936 ± 0.091. EPYHYAWTQRSW gave a protein stability index of 0.698 ± 0.015. Sequence EQKVRSPIEMML has a protein stability index of 0.591 ± 0.0064. EQQLSHENMQFK showed a protein stability index of 0.68 ± 0.01. For EQRRAGPAEVTK, the protein stability index was 0.694 ± 0.04. Work on EQSWAIQKVRQG yielded a protein stability index of 0.737 ± 0.025. ERARGGRGVGGN showed a protein stability index of 0.678 ± 0.033. ERARGKGAGKAE was tested, and the protein stability index was 0.688 ± 0.019. ERERQREKEKLK gave a protein stability index of 0.6735 ± 0.0038. ERFRWRRNRSLG gave a protein stability index of 0.672 ± 0.16. ERGEEESGRSGS showed a protein stability index of 0.7225 ± 0.0046. ERGGWGVGSEVG showed a protein stability index of 0.719 ± 0.03. ERGKRSTEWARK showed a protein stability index of 0.681 ± 0.042. In the case of ERGRRPAGGGEK, the protein stability index is reported as 0.719 ± 0.028. With ERIGVEERKGLE the protein stability index was 0.658 ± 0.021. Work on ERKDPNTNKVKS yielded a protein stability index of 0.678 ± 0.0083. For ERKKKKKERARG, the protein stability index was 0.767 ± 0.1. With ERNKKKNNQVNK the protein stability index was 0.619 ± 0.054. Sequence ERNNTICREIIE has a protein stability index of 0.686 ± 0.026. Sequence ERRELSAHVYLD has a protein stability index of 0.665 ± 0.1. Work on ERRGGRKGRGRE yielded a protein stability index of 0.662 ± 0.02. Work on ERRGSLSWPIPP yielded a protein stability index of 0.722 ± 0.036. ERSKTMVAGGEE was tested, and the protein stability index was 0.686 ± 0.062. ERVMMKNDSIVT showed a protein stability index of 0.623 ± 0.1. ESKATIRTRARN gave a protein stability index of 0.74 ± 0.028. Sequence ESKCADNKMKRK has a protein stability index of 0.652 ± 0.022. With ESQKKEKTKPKN the protein stability index was 0.655 ± 0.023. ESRWRSPCFIIW was tested, and the protein stability index was 0.626 ± 0.11. For ESSKVRNLELLK, the protein stability index was 0.669 ± 0.017. ESTKKQSTAPKN was tested, and the protein stability index was 0.714 ± 0.043. ESVGLGDRRVCS was tested, and the protein stability index was 0.65 ± 0.024. With ETEKHGIRRRQG the protein stability index was 0.644 ± 0.027. For ETKKKTNKRAEK, the protein stability index was 0.689 ± 0.053. With ETRKINELRAKK the protein stability index was 0.642 ± 0.087. ETRKKKLTNSRT was tested, and the protein stability index was 0.622 ± 0.071. EVAFGLLPPHDS was tested, and the protein stability index was 0.701 ± 0.019. EVESYVVSGDRW gave a protein stability index of 0.608 ± 0.042. Work on EVFGNVREAHCV yielded a protein stability index of 0.707 ± 0.019. EVVEDGAEEVGR showed a protein stability index of 0.685 ± 0.053. With EVWSYCPAFFVD the protein stability index was 0.736 ± 0.016. EWALAESGYDEP gave a protein stability index of 0.746 ± 0.05. Sequence EWCQVGGRGFLG has a protein stability index of 0.74 ± 0.021. With EWEKKKRGNTRK the protein stability index was 0.642 ± 0.022. With EWRDSCLLKWWV the protein stability index was 0.725 ± 0.015. EWRWCESKIITV showed a protein stability index of 0.625 ± 0.028. In the case of EWVLRTLVDTNW, the protein stability index is reported as 0.728 ± 0.0075. EWVSGWIVRWWR gave a protein stability index of 0.679 ± 0.076. In the case of EYAVDAERLRTT, the protein stability index is reported as 0.72 ± 0.053. EYDIKRRKRRNT gave a protein stability index of 0.67 ± 0.23. With EYISNLLSSPEP the protein stability index was 0.633 ± 0.013. EYRCVAQHSLLH was tested, and the protein stability index was 0.743 ± 0.049. Sequence EYRRADYCLGVG has a protein stability index of 0.547 ± 0.011. FAAKASVLRMRR was tested, and the protein stability index was 0.605 ± 0.029. FAFPQASHPVRI showed a protein stability index of 0.664 ± 0.063. With FAGGAVNIGVVG the protein stability index was 0.71 ± 0.015. FAGGPSIAAHVL was tested, and the protein stability index was 0.712 ± 0.2. For FAIFSGMSFGVY, the protein stability index was 0.693 ± 0.05. Work on FALLVSDISGRI yielded a protein stability index of 0.811 ± 0.03. FAPCSPKAVFCS gave a protein stability index of 0.589 ± 0.037. In the case of FAPSAGGSLAGP, the protein stability index is reported as 0.698 ± 0.033. FARPQCLPVPLP gave a protein stability index of 0.6555 ± 0.001. In the case of FARQSMLSKLQI, the protein stability index is reported as 0.587 ± 0.033. FASTEDDKKNTT gave a protein stability index of 0.6746 ± 0.0029. Work on FAWSPPACFIPS yielded a protein stability index of 0.654 ± 0.011.
